Laboratory results from patent US20210371867A1 (SYSMEX, published 2021).

T1: human CD80/B7-1 protein (His tag) (human, UniProt P33681 35-242)
T1 construct: Recombinant His-tagged protein used as the antigen solution; also called antigen
T1 sequence (looked up): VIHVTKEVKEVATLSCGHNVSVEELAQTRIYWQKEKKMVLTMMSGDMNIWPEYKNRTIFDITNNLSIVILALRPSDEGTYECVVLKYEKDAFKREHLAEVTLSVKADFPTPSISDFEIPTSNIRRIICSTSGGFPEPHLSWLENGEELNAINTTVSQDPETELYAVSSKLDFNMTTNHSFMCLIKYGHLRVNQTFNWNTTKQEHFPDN

B1: ALP fusion antibody of Example 1 (GS1 linker): Fab of rabbit anti-CD80 antibody, Fd-GS1-BIAPII (Fab)
heavy: QSVEESGGRLVTPGTPLTLTCTASGFSLSNNAVSWVRQAPGEGLEWIGTISSNDNTYYATWAKGRFTISKTSTTVDLKITSPTTEDTATYFCAIYYYGYGYVFNLWGPGTLVTVSSGQPKAPSVFPLAPCCGDTPSSTVTLGCLVKGYLPEPVTVTWNSGTLTNGVRTFPSVRQSSGLYSLSSVVSVTSSSQPVTCNVAHPATNTKVDKTVAPSTCSKPTGGGGSLIPAEEENPAFWNRQAAQALDVAKKLQPIQTAAKNVILFLGDGMGVPTVTATRILKGQMNGKLGPETPLAMDQFPYVALSKTYNVDRQVPDSAGTATAYLCGVKGNYRTIGVSAAARYNQCNTTRGNEVTSVINRAKKAGKAVGVVTTTRVQHASPAGAYAHTVNRNWYSDADLPADAQKNGCQDIAAQLVYNMDIDVILGGGRMYMFPEGTPDPEYPDDASVNGVRKDKQNLVQEWQAKHQGAQYVWNRTALLQAADDSSVTHLMGLFEPADMKYNVQQDHTKDPTLAEMTEAALQVLSRNPRGFYLFVEGGRIDHGHHDGKAYMALTEAIMFDNAIAKANELTSELDTLILVTADHSHVFSFGGYTLRGTSIFGLAPGKALDSKSYTSILYGNGPGYALGGGSRPDVNGSTSEEPSYRQQAAVPLASETHGGEDVAVFARGPQAHLVHGVQEETFVAHIMAFAGCVEPYTDCNLPAPA
light: ELVMTQTPASVSEPVGGTVTINCQASEDIYSSLAWYQQKPGQRPKLLMYYASTLASGVPSRFKGSGSGTEFTLTISDLECADAATYYCQSYYLSSSSRYGNAFGGGTEVVVKGDPVAPTVLIFPPAADQVATGTVTIVCVANKYFPDVTVTWEVDGTTQTTGIENSKTPQNSADCTYNLSSTLTLTSTQYNSHKEYTCKVTQGTTSVVQSFIG
notes: Fab-enzyme fusion; two ALP fusion Fab molecules form a complex by dimer formation of the ALP subunits; also called Fab-GS1-BIAPII; ALP fusion antibody (GS1 linker)
B2: ALP fusion antibody of Example 1 (GS3 linker): Fab of rabbit anti-CD80 antibody, Fd-GS3-BIAPII (Fab)
heavy: QSVEESGGRLVTPGTPLTLTCTASGFSLSNNAVSWVRQAPGEGLEWIGTISSNDNTYYATWAKGRFTISKTSTTVDLKITSPTTEDTATYFCAIYYYGYGYVFNLWGPGTLVTVSSGQPKAPSVFPLAPCCGDTPSSTVTLGCLVKGYLPEPVTVTWNSGTLTNGVRTFPSVRQSSGLYSLSSVVSVTSSSQPVTCNVAHPATNTKVDKTVAPSTCSKPTGGGGSGGGGSGGGGSLIPAEEENPAFWNRQAAQALDVAKKLQPIQTAAKNVILFLGDGMGVPTVTATRILKGQMNGKLGPETPLAMDQFPYVALSKTYNVDRQVPDSAGTATAYLCGVKGNYRTIGVSAAARYNQCNTTRGNEVTSVINRAKKAGKAVGVVTTTRVQHASPAGAYAHTVNRNWYSDADLPADAQKNGCQDIAAQLVYNMDIDVILGGGRMYMFPEGTPDPEYPDDASVNGVRKDKQNLVQEWQAKHQGAQYVWNRTALLQAADDSSVTHLMGLFEPADMKYNVQQDHTKDPTLAEMTEAALQVLSRNPRGFYLFVEGGRIDHGHHDGKAYMALTEAIMFDNAIAKANELTSELDTLILVTADHSHVFSFGGYTLRGTSIFGLAPGKALDSKSYTSILYGNGPGYALGGGSRPDVNGSTSEEPSYRQQAAVPLASETHGGEDVAVFARGPQAHLVHGVQEETFVAHIMAFAGCVEPYTDCNLPAPA
light: ELVMTQTPASVSEPVGGTVTINCQASEDIYSSLAWYQQKPGQRPKLLMYYASTLASGVPSRFKGSGSGTEFTLTISDLECADAATYYCQSYYLSSSSRYGNAFGGGTEVVVKGDPVAPTVLIFPPAADQVATGTVTIVCVANKYFPDVTVTWEVDGTTQTTGIENSKTPQNSADCTYNLSSTLTLTSTQYNSHKEYTCKVTQGTTSVVQSFIG
notes: Fab-enzyme fusion, dimer through the ALP subunits
B3: ALP fusion antibody of Example 1 (GS2 linker): Fab of rabbit anti-CD80 antibody, Fd-GS2-BIAPII (Fab)
heavy: QSVEESGGRLVTPGTPLTLTCTASGFSLSNNAVSWVRQAPGEGLEWIGTISSNDNTYYATWAKGRFTISKTSTTVDLKITSPTTEDTATYFCAIYYYGYGYVFNLWGPGTLVTVSSGQPKAPSVFPLAPCCGDTPSSTVTLGCLVKGYLPEPVTVTWNSGTLTNGVRTFPSVRQSSGLYSLSSVVSVTSSSQPVTCNVAHPATNTKVDKTVAPSTCSKPTGGGGSGGGGSLIPAEEENPAFWNRQAAQALDVAKKLQPIQTAAKNVILFLGDGMGVPTVTATRILKGQMNGKLGPETPLAMDQFPYVALSKTYNVDRQVPDSAGTATAYLCGVKGNYRTIGVSAAARYNQCNTTRGNEVTSVINRAKKAGKAVGVVTTTRVQHASPAGAYAHTVNRNWYSDADLPADAQKNGCQDIAAQLVYNMDIDVILGGGRMYMFPEGTPDPEYPDDASVNGVRKDKQNLVQEWQAKHQGAQYVWNRTALLQAADDSSVTHLMGLFEPADMKYNVQQDHTKDPTLAEMTEAALQVLSRNPRGFYLFVEGGRIDHGHHDGKAYMALTEAIMFDNAIAKANELTSELDTLILVTADHSHVFSFGGYTLRGTSIFGLAPGKALDSKSYTSILYGNGPGYALGGGSRPDVNGSTSEEPSYRQQAAVPLASETHGGEDVAVFARGPQAHLVHGVQEETFVAHIMAFAGCVEPYTDCNLPAPA
light: ELVMTQTPASVSEPVGGTVTINCQASEDIYSSLAWYQQKPGQRPKLLMYYASTLASGVPSRFKGSGSGTEFTLTISDLECADAATYYCQSYYLSSSSRYGNAFGGGTEVVVKGDPVAPTVLIFPPAADQVATGTVTIVCVANKYFPDVTVTWEVDGTTQTTGIENSKTPQNSADCTYNLSSTLTLTSTQYNSHKEYTCKVTQGTTSVVQSFIG
notes: as for B2
B4: ALP fusion antibody of Example 1 (EK1 linker): Fab of rabbit anti-CD80 antibody, Fd-EK1-BIAPII (Fab)
heavy: QSVEESGGRLVTPGTPLTLTCTASGFSLSNNAVSWVRQAPGEGLEWIGTISSNDNTYYATWAKGRFTISKTSTTVDLKITSPTTEDTATYFCAIYYYGYGYVFNLWGPGTLVTVSSGQPKAPSVFPLAPCCGDTPSSTVTLGCLVKGYLPEPVTVTWNSGTLTNGVRTFPSVRQSSGLYSLSSVVSVTSSSQPVTCNVAHPATNTKVDKTVAPSTCSKPTEAAAKLIPAEEENPAFWNRQAAQALDVAKKLQPIQTAAKNVILFLGDGMGVPTVTATRILKGQMNGKLGPETPLAMDQFPYVALSKTYNVDRQVPDSAGTATAYLCGVKGNYRTIGVSAAARYNQCNTTRGNEVTSVINRAKKAGKAVGVVTTTRVQHASPAGAYAHTVNRNWYSDADLPADAQKNGCQDIAAQLVYNMDIDVILGGGRMYMFPEGTPDPEYPDDASVNGVRKDKQNLVQEWQAKHQGAQYVWNRTALLQAADDSSVTHLMGLFEPADMKYNVQQDHTKDPTLAEMTEAALQVLSRNPRGFYLFVEGGRIDHGHHDGKAYMALTEAIMFDNAIAKANELTSELDTLILVTADHSHVFSFGGYTLRGTSIFGLAPGKALDSKSYTSILYGNGPGYALGGGSRPDVNGSTSEEPSYRQQAAVPLASETHGGEDVAVFARGPQAHLVHGVQEETFVAHIMAFAGCVEPYTDCNLPAPA
light: ELVMTQTPASVSEPVGGTVTINCQASEDIYSSLAWYQQKPGQRPKLLMYYASTLASGVPSRFKGSGSGTEFTLTISDLECADAATYYCQSYYLSSSSRYGNAFGGGTEVVVKGDPVAPTVLIFPPAADQVATGTVTIVCVANKYFPDVTVTWEVDGTTQTTGIENSKTPQNSADCTYNLSSTLTLTSTQYNSHKEYTCKVTQGTTSVVQSFIG
notes: as for B2
B5: ALP fusion antibody of Example 1 (EK2 linker): Fab of rabbit anti-CD80 antibody, Fd-EK2-BIAPII (Fab)
heavy: QSVEESGGRLVTPGTPLTLTCTASGFSLSNNAVSWVRQAPGEGLEWIGTISSNDNTYYATWAKGRFTISKTSTTVDLKITSPTTEDTATYFCAIYYYGYGYVFNLWGPGTLVTVSSGQPKAPSVFPLAPCCGDTPSSTVTLGCLVKGYLPEPVTVTWNSGTLTNGVRTFPSVRQSSGLYSLSSVVSVTSSSQPVTCNVAHPATNTKVDKTVAPSTCSKPTEAAAKEAAAKLIPAEEENPAFWNRQAAQALDVAKKLQPIQTAAKNVILFLGDGMGVPTVTATRILKGQMNGKLGPETPLAMDQFPYVALSKTYNVDRQVPDSAGTATAYLCGVKGNYRTIGVSAAARYNQCNTTRGNEVTSVINRAKKAGKAVGVVTTTRVQHASPAGAYAHTVNRNWYSDADLPADAQKNGCQDIAAQLVYNMDIDVILGGGRMYMFPEGTPDPEYPDDASVNGVRKDKQNLVQEWQAKHQGAQYVWNRTALLQAADDSSVTHLMGLFEPADMKYNVQQDHTKDPTLAEMTEAALQVLSRNPRGFYLFVEGGRIDHGHHDGKAYMALTEAIMFDNAIAKANELTSELDTLILVTADHSHVFSFGGYTLRGTSIFGLAPGKALDSKSYTSILYGNGPGYALGGGSRPDVNGSTSEEPSYRQQAAVPLASETHGGEDVAVFARGPQAHLVHGVQEETFVAHIMAFAGCVEPYTDCNLPAPA
light: ELVMTQTPASVSEPVGGTVTINCQASEDIYSSLAWYQQKPGQRPKLLMYYASTLASGVPSRFKGSGSGTEFTLTISDLECADAATYYCQSYYLSSSSRYGNAFGGGTEVVVKGDPVAPTVLIFPPAADQVATGTVTIVCVANKYFPDVTVTWEVDGTTQTTGIENSKTPQNSADCTYNLSSTLTLTSTQYNSHKEYTCKVTQGTTSVVQSFIG
notes: as for B2

Molecular target: T1, human CD80/B7-1 protein (His tag)
Experiment: sandwich chemiluminescence ELISA; capture rabbit anti-CD80 IgG on plate, antigen 0.005-20 ng/mL, binder as detection antibody at 200 ng/mL
Procedure: Rabbit anti-CD80 antibody (IgG) was diluted with PBS to 1 μg/mL. The resulting antibody solution was added to a 96-well black plate at 100 μL/well and allowed to stand overnight at 4° C. to immobilize the antibody in the wells. After removing the antibody solution from the plate, Buffer I′ (100 mM HEPES, 1% BSA, 0.05% ProClin (trademark), 1 mM MgCl₂, 0.1 mM ZnCl₂, pH 8.0) was added at 300 μL/well and allowed to stand overnight at 4° C. for blocking. After removing the solution from the plate, a human CD80/B7-1 protein (His tag) solution (0.005, 0.020, 0.078, 0.313, 1.25, 5.0 or 20 ng/mL) was added as an antigen solution at 100 μL/well. The plate was shaken at room temperature at 500 rpm for 1 hour to perform an antigen-antibody reaction. The plate was washed three times with a HISCL washing solution (Sysmex Corporation), and then each ALP fusion antibody (200 ng/mL) of Example 1 diluted with Buffer I′ was added at 100 μL/well. The plate was shaken at room temperature at 500 rpm for 1 hour to perform an antigen-antibody reaction. After washing the plate with a HISCL washing solution three times, a HISCL R5 reagent (Sysmex Corporation) as a solution of a chemiluminescent substrate of ALP was added at 100 μL/well, and luminescence intensity was immediately measured with FLUOstar OPTIMA (BMG LABTECH).

Binding result, binds:
B1, B2, B3, B4, B5
